The text below walks through data of PMC11782559, “Innovative CDR grafting and computational methods for PD-1 specific nanobody design” (Frontiers in Bioinformatics, 2024).

The assay has as its target T1, human PD-1 Fc recombinant protein (Homo sapiens, UniProt Q15116).
T1 construct: Programmed Cell Death Protein-1 (PD-1), human, bought as an Fc fusion; Ran at about 63 kDa in the blot; Surmise: the commercial product holds the extracellular domain of PD-1 fused to a human IgG1 Fc; The ELISA methods say only 'recombinant human PD-1'; also called recombinant human PD-1; Programmed Cell Death Protein-1; source: bought: Peprotech, Catalog # 310-40-1 MG
As to the kind of experiment: far-Western, overlay or dot blot; Western blot: PD-1 Fc (200 ng) separated on 12% SDS-PAGE (denatured), transferred to nitrocellulose, blocked with 5% milk in TBST, probed overnight at 4°C with 10 μg/mL purified nanobody, detected with anti-His tag HRP antibody. The following applies: both partners purified.

T1 sequence (Q15116 25-170): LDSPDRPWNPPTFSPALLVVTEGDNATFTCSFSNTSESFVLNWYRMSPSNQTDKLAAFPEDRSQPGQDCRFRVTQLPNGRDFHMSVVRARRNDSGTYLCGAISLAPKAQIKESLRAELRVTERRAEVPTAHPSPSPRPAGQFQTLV

B1: designed PD-1-specific nanobody (Cemiplimab CDRs grafted onto Caplacizumab framework regions) (VHH)
VHH: EVQLVESGGGLVQPGGSLRLSCAASGFTFSNFGMGWFRQAPGKGRELVAAISGGGRDTYYPDSVEGRFTISRDNAKRMVYLQMNSLRAEDTAVYYCVKWGNIYFDYWGQGTQVTVSS
notes: CDRs of the Cemiplimab heavy chain grafted onto the framework regions of Caplacizumab; 117 residues, 12.5 kDa without tag; Gene inserted into pET-28a (+) at NdeI and XhoI; with His tag about 13.5 kDa; Surmise: this cloning usually gives an N-terminal His6 tag with a thrombin site from the vector; also called NB; designed nanobody; source: E. coli BL21 (DE3), pET-28a (+), purified (Ni-NTA, …)
Turning to B1, the binding result is “binds”.
